The results in this text go back to paper PMC4504729 (Journal of Medicinal Chemistry, 2014).

Test [1] deals with mouse NGF (nerve growth factor, from mouse submaxillary salivary glands) (mouse) (UniProt P01139).
Test [2] has as its target T1, mouse NGF (nerve growth factor, from mouse submaxillary salivary glands) (mouse, UniProt P01139 122-241). Description: cell-based or functional assay.
A further test has as its target 125I-labeled NGF (UniProt P01139 122-241, 125I label). Kind of test: radioligand binding; competition: 15N-labeled TrkAIg2-NMR at varied concentration sequesters 125I-labeled NGF from full-length human TrkA on HEK cells. Particulars: both partners purified.
Test [3] deals with T1, mouse NGF (nerve growth factor, from …). Description: SEC; Superdex 75 gel filtration; TrkAIg2-NMR and mouse NGF applied separately and as a 1:1 ratio complex (1 mg/mL of each); 50 mM phosphate buffer, 150 μM NaCl, pH 7.4; sizes from a calibration curve. To be noted: both partners purified. Background: Size exclusion chromatography separates by hydrodynamic size, large species first.

“And” between values parts separate entries of the source, which are not always exact repeats. Equal values may be shown once.

Chain of 125I-labeled NGF (P01139 122-241): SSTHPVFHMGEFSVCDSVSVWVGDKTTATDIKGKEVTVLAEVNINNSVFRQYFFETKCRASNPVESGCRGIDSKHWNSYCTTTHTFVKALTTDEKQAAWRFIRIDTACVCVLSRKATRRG
T1 sequence (P01139 122-241): as above
Chain of mouse NGF (nerve growth factor, from mouse submaxillary salivary glands) (mouse) (P01139 122-241): as above

In test [1], “"wild-type" TrkAIg2 (TrkAIg2-WT) (domain or fragment)” came in with an NGF-dependent PC12 cell survival/proliferation (MTS assay, mouse NGF 5 ng/mL), serial dilutions of TrkAIg2-WT; EC50 of the reduction of 0.48 µM.

B1: TrkAIg2-NMR (domain or fragment, human)
chain: MDDDDDVSFCASVQLHTAVEMHHWCIPFSVDGQPAPSLRWLFNGSVLNETSFIFTEFLEPAANETVRHGCLRLNQPTHVNNGNYTLLAANPCGQASASIMAAFMDNPF
Take B1: the “NGF-dependent PC12 cell survival/proliferation (MTS assay, mouse NGF 5 ng/mL), serial dilutions of TrkAIg2-NMR; EC50 of the reduction” value in test [2] amounted to 2.1 µM. In the test with 125I-labeled NGF, the IC50 is ~5 µM and ~2 µM. Moreover, in test [3], the “stoichiometry N” value was 2 TrkAIg2-NMR monomers per NGF dimer.

Usually IC50 stands for the point on the concentration scale where inhibition reaches its midpoint. Low values mean higher potency, high ones lower potency.
